Results on one molecule are retold here after patent WO2007014992A2 (dated 2007).

The assay concerns the target T1, human LDL (Low Density Lipoprotein) receptor (human, UniProt P01130 22-860).
T1 construct: whole, on cells; Endogenous receptor on human A549 and MDA-MB-231 cells (flow cytometry); also called LDL-R; human LDL-R
The assay can be described thus: Western blot of total protein extracts of MDA-MB-231 cells. A general note: In western blotting, separated proteins are transferred to a membrane and probed.

T1 sequence (P01130 22-860): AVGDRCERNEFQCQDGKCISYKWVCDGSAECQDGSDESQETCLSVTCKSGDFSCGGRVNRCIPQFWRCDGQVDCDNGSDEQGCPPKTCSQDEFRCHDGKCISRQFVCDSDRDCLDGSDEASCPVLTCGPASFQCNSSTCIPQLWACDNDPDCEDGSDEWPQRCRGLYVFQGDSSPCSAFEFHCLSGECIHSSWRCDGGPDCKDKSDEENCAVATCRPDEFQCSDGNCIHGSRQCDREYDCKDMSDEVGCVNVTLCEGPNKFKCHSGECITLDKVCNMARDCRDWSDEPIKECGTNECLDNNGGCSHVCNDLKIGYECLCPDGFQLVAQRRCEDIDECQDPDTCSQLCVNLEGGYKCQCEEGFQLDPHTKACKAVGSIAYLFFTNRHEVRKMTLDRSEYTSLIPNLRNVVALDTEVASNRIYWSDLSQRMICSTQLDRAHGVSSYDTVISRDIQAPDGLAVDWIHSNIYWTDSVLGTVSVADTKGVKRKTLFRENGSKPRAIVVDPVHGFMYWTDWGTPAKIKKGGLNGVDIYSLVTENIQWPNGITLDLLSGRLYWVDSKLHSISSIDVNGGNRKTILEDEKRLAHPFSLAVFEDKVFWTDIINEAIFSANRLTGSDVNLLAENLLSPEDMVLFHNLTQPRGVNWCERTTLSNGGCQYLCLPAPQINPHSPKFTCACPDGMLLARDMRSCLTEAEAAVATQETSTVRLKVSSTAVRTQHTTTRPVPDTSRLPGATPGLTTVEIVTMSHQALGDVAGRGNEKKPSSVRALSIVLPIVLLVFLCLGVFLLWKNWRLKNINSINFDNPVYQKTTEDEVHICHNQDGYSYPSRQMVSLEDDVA

B1: Anti-LDL-R 5E5 monoclonal antibody produced by the hybridoma H5E5 (CNCM I-3488) (antibody, V domains shown)
VH: QVQLQQSGPELVRPGVSVKISCKGSGYTFTDYAMHWVKQSHAQSLEWIGFISTYSGNTNYNQKFKGRATMTVDKSSSTAYMELARLTSEDSAIYYCARPNYYGSSPGGFAYWGQGTLVTVSA
VL: ENVLTQSPAIMSASLGEKVTMSCRARSSVNYMYWYQQKSDASPKLWIYYTSNLAPGVPARFSGSGSGNSYSLTISSMEGEDAATYYCQQFTSSPSFGGGTKLEIK
notes: also called anti-LDL-R 5E5 antibodies; murine antibody 5E5
Consider B1, for which the binding result is reported as “binds”.
